Data on 17 sequences can be found in the DeepSol protein solubility set.

This series can be described thus: soluble on expression in E. coli; label from the status in PepcDB or PDB records.
Regarding “MKLEYLIDQAAGQPKKTVAVAVAEDHEVIEAVAKAIKLQLAQFRLYGNQEKIMGMLQEHGLQTSEHVEVIAAMSSAEAAELSVKAVRNGEADVLMKGNIPTANILKAVLNKEWGLRKGSVLSHVAAFEVPNYDRLIFVTDAAMNIAPDVTQKAAIIQNTVEVARAIGIDLPKVAPIAAVEVVNPAMQATIDAAMLTQMNRRGQIKDCIVDGPLALDNAVSQIAAEHKGIVSDVAGKADILLVPTIEAGNVLYKSLVYFADAKVGAMIAGAKAPIVLTSRADSAETKVYSLALAVATASK”, the “soluble on expression in E. coli” value is on record as “soluble”.
Next, “MGSDKIHHHHHHMRLSELKDAGRSPTLPLSITLVDAAGSADLQLLTLLRVLPGQRYVGAGVWRGTPVLAKLLVGGNAARHFQRELQGVKLLAEQGLTTPTLLADGLKEGEGGWLLFEFLDGAQSLADAWAAVENLPVLADEQHLVLGEALTAVAHMHAQGLWQEDLHLDNLLRHAGKLYLIDGAGIRAETPGQQLSRPRVLENLGVFFAQLPKRLEPFIEELLVHYLLANAEHALPLEALQKQVDKVRNWRQKDYLDKAGRECSLFSVQRTLSGLQAIRRSEVEAMQPVLEQADALIDKGHLYKTGGAASVARIEVNGRQLVIKRYNIKNTAHWFKRFWRPSRAWHSWIEGHRLEFLDIATPRPLAVLEQRVLGLRSRAYLVTEYVDGPDLTACFAPHVESGDAPEEQVDALVHVMQQLIRERISHGDFKGHNLFWHNGQWSLIDLDAMCQHATQLSFAPAYARDRARLLRNWPTGSALHQRLDRLLPKLVD”: “not soluble”.
With “MKIAVVGCDGFGKVHLRAMRNISGIEYYVFSRNEEKARECMKEFNAEGYFTRYEDVIKSNVDIVDLLVSHDQHYPMGVMAMKAGKHLMLEKPIARTIEEAMGLINTSKDTKRKFMVLEQFYFESSVRKAKELLPRLGNLSLIIVRSIHLYQ”, the “soluble on expression in E. coli” value is “not soluble”.
With “MAQIIDFFAAFRGYYSDGSTFIQIISLGSHHNLSVHISERMLSESGIKLGNFLSATVSLAEHPKNFQLKRLNLQVTVEGNFAKVHGIEANLEKNADGILVFSTNNFASAKATNQGLEIGRYKITVQAVKPSEKDLFNGMKFFGTVEEKISGLTRRVASNNTNQVIGEGFRNMSISGKRTVS”, the “soluble on expression in E. coli” value was “not soluble”.
Next, “MSLGDPGLKFQEYILQHIEPSKSYEIAICQSIGRRGKMEDTVVVDCSSIEGTDIIGVFDGHNGKDAAYLCTEQYIKTFKENEGTFEAKLIKTHKQLHDKSCETSKSGTTSTVAFIDKDTIRIAYCGDSPAYIYKNNKIKKITKEHKATNSAEVERIEMNGGVVFGMFGVKRVNGQIMVTRSIGDPSLHPPLTTEPDFIKLEKKGIELLFLMSDGITDGVTEKELEDIISKSGGMFNIAFDTLKLAYVNESSDNLTFIVIKINEGHHHHHH”: “soluble”; “MSLARQVTAFNTGWQFKKGPFATDPMRAASQWDGKWETVEIPHTWNAMDMQVQSGSFYEGAGYYRKTQFFPHDLEGKRVFLRFEGVGACAEVYVNGKLAGTHKGGYSAFACEIGTALKLGAENEIIVKADNKARPDVIPVNQNLFGVYGGIYRPVWLIVTEQNNITVTDCASPGVYITQKDVSKKSADITVKVKLDNAGLQPAAVTLENTIYTQEGQKVGTHSRSFDLSPQGTQTYLSTFKLKNPHLWQGRKDPYLYKVVCRLMADGKVIDEVVQPLGVRKYEIVAGKGFFLNGEKYSMYGVTRHQDWWGLGSALKNEHHDFDLAAIMDVGATTVRFAHYQQSDYLYSRCDTLGLIIWAEIPCVNRVTGYETENAQSQLRELIRQSFNHPSIYVWGLHNEVYQPHEYTAALTRSLHDLAKTEDPDRYTVSVNGYGHMDHPVNLNADIQGMNRYFGWYEKKIQDIKPWVEQLEKDYPYQKLMLTEYGADANLAHQTEYLGDALNWGKPFYPETFQTKTHEYQWSIIKDHPYIIASYLWNMFDFAVPMWTRGGVPARNMKGLITFDRKTKKDSYFWYKANWSEEPVLYLTQREGHHHHHH”: “not soluble”.
“NTEEKFVRAEEKAKRSKMLIDMKSEQYNMITEKIEKTRKSRHDIHHHINVVYQLAKENKIEQLIEYLEEYNKIYSTKEPMVYCNNSTVDAILNHYILLAKDNGIEVHLNVALPEELKIRDTDLCIVIGNLLENAIEASEKEENKRIKLRINRSNEYICMLVSNLYNGEIKKGHSGYYSRKREFKDTGIGLSSVSAVVEKYDGRMEVDHTNGEFNVFIMMANISSNLT”: the “soluble on expression in E. coli” value was “not soluble”.
Consider “MFPFGHKGQKIKGTMVVMQKNVLDINSITSVDGIVGTGLDFLGSALDTVTFLASSISIQLISATKADGGKGKVGKATNLRGKITLPTIGAKEEAYDAQFDWDSDFGIPGAFYIKNYMQNEFYLKSLILEDIPNHGTIHFICNSWVYNSKHYKTDRIFFANNTYLPSETPAPLVKYREEELKNVRGDGTGERKEWDRIYDYDVYNDLGDPDKGEKYARPVLGGSALPYPRRGRTGRGKTRKDPNSEKPGDFVYLPRDEAFGHLKSSDFLAYGIKSVAQDVLPVLTDAFDGNLLSLDFDNFAEVRKLYEGGVTLPTNFLSNITPIPIIKELFRTDGEQFLKYPPPKVMQVDKSAWMTDEEFARETIAGLNPNVIKIIEEFPLSSKLDTQAYGDHTCIITKEHLEPNLGGLTVEQAIQNKKLFILDHHDYLIPYLRKINANTTKTYATRTIFFLKNDGTLTPLAIELSKPHPQGEEYGPVSEVYVPSSEGVEAYIWLLAKAYVVVNDACYHQIISHWLNTHAVVEPFVIATNRHLSVVHPIYKLLFPHYRDTMNINSLARKSLVNADGIIEKTFLWGRYSLEMSAVIYKDWVFTDQALPNDLVKRGVAVKDPSAPHGVRLLIEDYPYASDGLEIWDAIKSWVEEYVSFYYKSDEELQKDPELQAWWKELVEVGHGDLKDKPWWQKMQTREELVEASATLIWIASALHAAVNFGQYPYGGLILNRPTISRRFMPEKGSPEYDALAKNPEKEFLKTITGKKETLIDLTIIEILSRHASDEFYLGQRDGGDYWTSDAGPLEAFKRFGKNLEEIEKKLIEKNNDETLRNRYGPAKMPYTLLYPSSEEGLTFRGIPNSISI”, for which the “soluble on expression in E. coli” value is on record as “soluble”.
As to “FNQTYQFTGLLNPDGTVIEANDAALDFGGLDRDEIVGKHFADIPWWSHSDTERDNVRDALERAASGEFVRYETEVRGVDGLGTIDFSVKPVTDQDENVTLLVVEGRDIT”, the “soluble on expression in E. coli” value was “not soluble”.
On to “SLSYTISRPINQLMLAMQKAESGDLTSRYEGEEQDEVGRLGRSFNTMIEQIGKLISLTERQERKKREAELHSLQANIKPHFLYNTLDTIQWMARKKNASDVADLVGALSKLFRIGLSKGGTIIPLVDEIEHIKNYLQIQSVRYKNKLNYSLVMPSNMERLSILKIVLQPIVENAIYHGIKERRGPGLITIEAERENDMLIIRIRDNGKGIKPETLQQLRTNVNLFLEKGDKEGGQRLTKGYGLINVHARLRLTFGEPYGVKIDSVFNEGTVVTIFHPILEGGVETKRA”, for which the “soluble on expression in E. coli” value is reported as “soluble”.
Regarding “MIDKHVACERPLTVYLNWRPIVTLMTLGAKPESLALGYLKNQGFISDVSQLESVIVDWGVNSAAVLTREQTADIDKKLSEKTVTSGCGQGTVYGSFMQDLEGIQLPRPSLKQSTLYSLLKNINEYNDTYKNAGAVHGCGVCEADQILAFVEDVGRHNAVDTLAGDMWLAQDRGDNKIFYTTGRLTSEMVIKVAKMGIPVLLSRSGVTQMGLELAQNLGITIIARAKGRHFLVYHGSENLEFDVNTSPSKLEHHHHHH”, the “soluble on expression in E. coli” value is reported as “not soluble”.
Turning to “MGSDKIHHHHHHMEPHWDDMKVFLAVAREESLSGAGRQLKLDPATVGRRIARLESAYDTPLFAKSPQGYTLTAAGERLLSHGEQAEAAMRSASEALAGTTEGLTGQIRIGAPDGSANYLLPQVCAQISDENPELDIQILALPRIINLSRREADMAVTVSAPTAGHLLVQKITDYKLHMVASRRYLRGHPPIETLADLRGHRMIGYIPDMIFDRELDYLNDIGIERVALASNSVSVQLRQAGHGSGICVAHDFTLPFHGNLRRILTDQVSLTRSFYLVRHQGDQRSERLNRFAEALTRGIRDEVARLEADAMS”, the “soluble on expression in E. coli” value is reported as “not soluble”.
“MKILYIVLDGAADSPTSPRKTLEEASKPNIDSLGSHAVCGMVYTVKPGVAPQSDYATLSLLGYNPDEYYPGRGPLEAFGAGIEMRRGDIALRANFATVDPGTLRIIDRRVGRSLTSREARELASAVDGMELEDGEGTALFRATIGHRGVLVLRHRSKPLSDAISNTDPAYERRGRFSVALEKYEPFIKLSNPLVEDEAAVLAARMLNEFTLKAVEILDSHPVNLAREKRGLLKANAILSRDAGGLPEEKPPSFQERFGLRGASIVEMVVERGISRYIGLDDIRVEIEGRAREEVYREEAARAVEALETHDLVYVHLKGPDEPGHDGSFEGKIRAVEDIDKHFFAPLLDRLSSAGLEPAFVVTSDHATPWDVGAHSGDPVPLMISHQSIQ”: the “soluble on expression in E. coli” value is given as “not soluble”.
As for “MKNRYAKVSNMAKNASSPSRRFMKLAGMTASIATKTVSNSIRNLTADDEQKLASKTKLFQDIGIQIADTLGEMKGAVMKVGQIASQYKDIFPPEVAKAIAKLQRQAPAVPFSAIQQQVEKELGKPLLQAFQSFDQQPFAAASIGQVHRAVLPDGQEVVVKVQYPGVDEACESDLKQVRLALRLMGVIKIDKKLQDQLFTEIQDSLSDELNYEIEAQNLEVFKTFHQQLDNKIIIPTVYKNYSSRRILTLSLERGDSIETASTWPLETRNQIGRRLIRALGQEIFYLKRFHCDPHPGNFAFREDGTVIIYDFGGVKTLSSDIVSHFKHLVQAARQQDITAIENHLDALHSLSDKGLFPEELYLQWLEVLLRPLTTHYDFAENSAHHDGVTLVKKSLKYWDVFKPSPDTLMVNRTISGHYWNLIHLKVHDDLSDLFEELVPTTIN”, the “soluble on expression in E. coli” value is recorded as “not soluble”.
Take “MEYKLHNGSGGLCCKGCSRQDKKLNTYDWLADIPGNAEECDMVEVQFKNTRKGYYRNSNKIKLEKGDIVAVEAAPGHDIGVVTLTGRLVPLQMKKANFKTDVEIKRIYRKAKPVDMEKFNEAKAKEHATMIRARQIALNLNLDMKIGDVEYQGDGNKAIFYYIADERVDFRQLIKVLAEAFRVRIEMKQIGARQEAGRIGGIGPCGRELCCATWMTSFVSVSTSAARFQDISLNPQKLAGQCAKLKCCLNYEVDCYVEAQKRLPSKEIELETKDGTFYFFKADILSNHVSYSTDKNFPANLVTISGKRAFEVIAMNKKGMKPDSLLEAEVKQESKKPIDLLEQESLTRFDRNRNNKDGNNGNRNKKKRKGNNDNRPQAQAESGNRPQQPQRGENENRPQPSENGNRGERGDRENRPRNNNNNNRNRGQNQGRNNENRRPERGQNQERPQNPNRPQNQERSQNQERPVNQERNQERNQERPQNRERQPKQERPQNQERPQEQGRQPNQERIPRPERNSNQEKPQNNEKPAQELEHHHHHH”: the “soluble on expression in E. coli” value is reported as “soluble”.
Consider “SAPVGVEKKLLLGPNGPAVAAAGDLTSEEEEGQSLWSSILSEVSTRARSKLPSGKNILVFGEDGSGKTTLMTKLQGAEHGKKGRGLEYLYLSVHDEDRDDHTRCNVWILDGDLYHKGLLKFAVSAESLPETLVIFVADMSRPWTVMESLQKWASVLREHIDKMKIPPEKMRELERKFVKDFQDYMEPEEGCQGSPQRRGPLTSGSDEENVALPLGDNVLTHNLGIPVLVVCTKCDAVSVLEKEHDYRDEHLDFIQSHLRRFCLQYGAALIYTSVKEEKNLDLLYKYIVHKTYGFHFTTPALVVEKDAVFIPAGWDNEKKIAILHENFTTVKPEDAYEDFIVKPPVRKLVHDKELAAEDEQVFLMKQQSLLAKQPATPTRASESPARGPSGSPRTQGRGGPASVPSSSPGTSVKKPDPNIKNNAASEGVLASFFNSLLSKKTGSPGSPGAGGVQSTAKNSGQKTVLSNVQEELDRMTRKPDSMVTNSSTENEA”, for which the “soluble on expression in E. coli” value is given as “soluble”.
With “MISLPIDLVLPDLREALVNRNEVILEAPPGAGKTTRVPLALLNESWLGDQKILMLEPRRLAARAAAERLASELGEKVGEIVGYRIRLESKVGPRTKIEVVTEGILARRLQDDPALDGVGVVIFDEYHLRNLHSDLALALCLSGRDLLRDDPPLKLLLMSAT”, the “soluble on expression in E. coli” value is “not soluble”.
